Reference: patent US20230048360A1

Tests used:
[1] = molecular target: cell surface-bound human GPC3 on GPC3+ HepG2 cells (human) (UniProt P51654); assay: FACS, control (helper) phage on GPC3+ HepG2 cells, anti-M13 then PE anti-mouse IgG; same sample in FIGS. 2A-2E
[2] = molecular target: cell surface-bound human GPC3 on GPC3+ HepG2 cells (human) (UniProt P51654); assay: FACS, control (helper) phage on GPC3+ HepG2 cells, anti-M13 then PE anti-mouse IgG; same sample in FIGS. 3A-3D
[3] = molecular target: cell surface-bound human GPC3 on GPC3+ HepG2 cells (human) (UniProt P51654); assay: FACS, helper phage on GPC3+ HepG2 cells, mouse anti-M13 then PE anti-mouse IgG; same sample shown in all panels of FIGS. 1A-1G
[4] = molecular target: cell surface-bound human GPC3 on GPC3+ HepG2 cells (human) (UniProt P51654); assay: FACS, control mIgG1 on GPC3-positive HepG2 cells, PE anti-mouse IgG (H and L)

Row | Substance | Median : PE-A [1] | Median : PE-A [2] | Median : PE-A [3] | Median : PE-A [4]
1 | Negative control (helper phage) | 556 | 106 | 99.4 | –
2 | control mIgG1 (antibody) | – | – | – | 93.8
